Measurements from PMC10396304.
Each block holds one substance with its values, some of them ahead of it.

Columns and labels:
[1] = biological target: AoLadC, LOV-activated diguanylate cyclase from Aquella oligotrophica (Aquella oligotrophica); assay: SEC-MALS; Superdex 200 Increase 10/300 GL in storage buffer, 500-1000 ug protein, illuminated state (blue light 465 nm for 1 min before loading and during the whole run); miniDAWN MALS detector
[2] = biological target: AoLadC, LOV-activated diguanylate cyclase from Aquella oligotrophica (Aquella oligotrophica); assay: SEC-MALS; Superdex 200 Increase 10/300 GL in storage buffer, 500-1000 ug protein, dark-adapted state (non-actinic light); miniDAWN MALS detector
[3] = biological target: DpLadC, LOV-activated diguanylate cyclase from Deinococcus peraridilitoris DSM 19664 (Deinococcus peraridilitoris DSM 19664); assay: SEC-MALS; Superdex 200 Increase 10/300 GL in storage buffer, 500-1000 ug protein, illuminated state (blue light 465 nm for 1 min before loading and during the whole run); miniDAWN MALS detector
[4] = biological target: DpLadC, LOV-activated diguanylate cyclase from Deinococcus peraridilitoris DSM 19664 (Deinococcus peraridilitoris DSM 19664); assay: SEC-MALS; Superdex 200 Increase 10/300 GL in storage buffer, 500-1000 ug protein, dark-adapted state (non-actinic light); miniDAWN MALS detector
[5] = biological target: MsLadC, LOV-activated diguanylate cyclase from Methylotenera sp. (Methylotenera sp.); assay: SEC-MALS; Superdex 200 Increase 10/300 GL in storage buffer, 500-1000 ug protein, illuminated state (blue light 465 nm for 1 min before loading and during the whole run); miniDAWN MALS detector
[6] = biological target: MsLadC, LOV-activated diguanylate cyclase from Methylotenera sp. (Methylotenera sp.); assay: SAXS; steady-state light-adapted sample (blue light 465 nm), BM29 ESRF, 20°C in the capillary, MsLadC 0.8 mg/ml, NT-AoLadC 0.9 mg/ml; molecular weight from Porod volume and volume of correlation
[7] = biological target: MsLadC, LOV-activated diguanylate cyclase from Methylotenera sp. (Methylotenera sp.); assay: SEC-MALS; Superdex 200 Increase 10/300 GL in storage buffer, 500-1000 ug protein, dark-adapted state (non-actinic light); miniDAWN MALS detector
[8] = biological target: MsLadC, LOV-activated diguanylate cyclase from Methylotenera sp. (Methylotenera sp.); assay: SAXS; steady-state dark-adapted sample, BM29 ESRF, 20°C in the capillary, MsLadC 0.8 mg/ml, NT-AoLadC 0.9 mg/ml; molecular weight from Porod volume and volume of correlation
[9] = biological target: SfLadC, LOV-activated diguanylate cyclase from Serratia fonticola AU-AP2C (Serratia fonticola AU-AP2C); assay: SEC-MALS; Superdex 200 Increase 10/300 GL in storage buffer, 500-1000 ug protein, illuminated state (blue light 465 nm for 1 min before loading and during the whole run); miniDAWN MALS detector
[10] = biological target: SfLadC, LOV-activated diguanylate cyclase from Serratia fonticola AU-AP2C (Serratia fonticola AU-AP2C); assay: SEC-MALS; Superdex 200 Increase 10/300 GL in storage buffer, 500-1000 ug protein, dark-adapted state (non-actinic light); miniDAWN MALS detector

stoichiometry N [1]: 2 | stoichiometry N [2]: 2
Substance: AoLadC, LOV-activated diguanylate cyclase from Aquella oligotrophica (enzyme)

stoichiometry N [3]: 2 | stoichiometry N [4]: 2
Substance: DpLadC, LOV-activated diguanylate cyclase from Deinococcus peraridilitoris DSM 19664 (enzyme)

stoichiometry N [5]: 2 | stoichiometry N [6]: 2 | stoichiometry N [7]: 2 | stoichiometry N [8]: 2
Substance: MsLadC, LOV-activated diguanylate cyclase from Methylotenera sp. (enzyme)

stoichiometry N [9]: 2 | stoichiometry N [10]: 2
Substance: SfLadC, LOV-activated diguanylate cyclase from Serratia fonticola AU-AP2C (enzyme)
